The text below walks through data of US5959145A, “Fatty acid analog enzyme substrates” (priority 1993, dated 1999).

Holding throughout (test): kinetic characterisation of fatty acid analogs as yeast NMT substrates
What all share (format): biochemical
What all share (details): other: peptide GNAAS[125I]YRR varied, fatty acid analog at 15 μM

Substrate in series [1]: COCCCCCCCCCCC(=O)O
An excerpt:
(§1) Similar results were obtained using an 11,000-fold purified preparation of yeast NMT [Towler et al., Proc. Natl. Acad. Sci. USA 84, 2708-2712 (1987)].
(§2) Other illustrative examples of the oxy- and thio-substituted fatty acid analog substrate compounds of the invention were synthesized in Examples 6 to 14 and tested in Example 15 as substrates for the yeast NMT.
(§3) For these Examples, each analog synthesized is characterized by ^1 H and ^13 C NMR as well as mass spectroscopy. The analogs are then characterized kinetically as NMT substrates. Briefly, fatty acid analogs are converted to their CoA esters with Pseudomonas CoA ligase and incubated with the iodinated peptide GNAAS[^125 I]YRR and a source of NMT. […] The radiolabelled peptide is then used at concentrations which will lead to 50% enzyme saturation (i.e., at its Km) for the determination of fatty acid analog kinetic characteristics. Representative analogs with sulfur or oxygen in the backbone of the fatty acid chain serve as good substrates for NMT in vitro and will compete for incorporation of ^3 H labelled myri-state into yeast proteins in vivo. In addition, these analogs differ markedly in hydrophobicity from myri-state as measured both by C18 reverse phase HPLC elution profiles and by 2-octanol/water partition coefficients. The analog CH3 O(CH2)11 COOH, for example, partitions into water 20 fold better than myristate. It is believed that these analogs will be incorporated into mammalian acylproteins in vivo and that their incorporation into these proteins will drastically alter protein processing or targeting. It is further believed that the incorporation of fatty acid analogs of both myristate and palmitate into ester linked and phosphatidyl inositol glycan linked acylproteins will also dramatically alter their properties. Since many viral proteins and oncogenes are acylated, these compounds represent a new class of potential antiviral and antineoplastic agents.

Substrate in series [2]: CCCOCCCCCCCCCC(=O)O
Description: as §1, §2, §3

Substrate in series [3]: CCCCOCCCCCCCCCCC(=O)O
Description: as §1, §2, §3

Substrate in series [4]: CCCCCCCCOCCCCC(=O)O
Description: as §1, §2, §3

Substrate in series [5]: CCSCCCCCCCCCCC(=O)O
Description: as §1, §2, §3

Substrate in series [6]: CCCSCCCCCCCCCC(=O)O
Description: as §1, §2, §3

Substrate in series [7]: CCOCCCCCCCCCCC(=O)O
Description: as §1, §2, §3

Substrate in series [8]: CCCCCCCCCCCCCC(=O)O
Description: as §1, §2, §3

Substrate in series [9]: C#CCOCCCCCCCCCC(=O)O
Description: as §1, §2, §3

Substrate in series [10]: CCCCCCCCSCCCCC(=O)O
Description: as §1, §2, §3

B1: yeast NMT (Saccharomyces cerevisiae S288C) (protein)
chain: MSEEDKAKKLENLLKLLQLNNDDTSKFTQEQKKAMKDHKFWRTQPVKDFDEKVVEEGPIDKPKTPEDISDKPLPLLSSFEWCSIDVDNKKQLEDVFVLLNENYVEDRDAGFRFNYTKEFFNWALKSPGWKKDWHIGVRVKETQKLVAFISAIPVTLGVRGKQVPSVEINFLCVHKQLRSKRLTPVLIKEITRRVNKCDIWHALYTAGIVLPAPVSTCRYTHRPLNWKKLYEVDFTGLPDGHTEEDMIAENALPAKTKTAGLRKLKKEDIDQVFELFKRYQSRFELIQIFTKEEFEHNFIGEESLPLDKQVIFSYVVEQPDGKITDFFSFYSLPFTILNNTKYKDLGIGYLYYYATDADFQFKDRFDPKATKALKTRLCELIYDACILAKNANMDVFNALTSQDNTLFLDDLKFGPGDGFLNFYLFNYRAKPITGGLNPDNSNDIKRRSNVGVVML
A word on the Km: it is the concentration of substrate that gives half-maximal velocity. With B1, the Km in series [1] was determined as 47.3 µM; in series [2], 34 µM; in series [3], 42 µM; in series [4] it was 31 µM; in series [5] it was 19 µM; in [6], 47 µM. In addition, the Km in [7] turned out to be 14.8 µM; in series [8], 10 µM; in series [9], 28 µM; in [10], 11.5 µM.
